Experiments:
Test in all cases: cell_activity; PAM ATG; GFP reporter in CHO cells
[1] = target: T1, Cas12j19 WT
T1 chain: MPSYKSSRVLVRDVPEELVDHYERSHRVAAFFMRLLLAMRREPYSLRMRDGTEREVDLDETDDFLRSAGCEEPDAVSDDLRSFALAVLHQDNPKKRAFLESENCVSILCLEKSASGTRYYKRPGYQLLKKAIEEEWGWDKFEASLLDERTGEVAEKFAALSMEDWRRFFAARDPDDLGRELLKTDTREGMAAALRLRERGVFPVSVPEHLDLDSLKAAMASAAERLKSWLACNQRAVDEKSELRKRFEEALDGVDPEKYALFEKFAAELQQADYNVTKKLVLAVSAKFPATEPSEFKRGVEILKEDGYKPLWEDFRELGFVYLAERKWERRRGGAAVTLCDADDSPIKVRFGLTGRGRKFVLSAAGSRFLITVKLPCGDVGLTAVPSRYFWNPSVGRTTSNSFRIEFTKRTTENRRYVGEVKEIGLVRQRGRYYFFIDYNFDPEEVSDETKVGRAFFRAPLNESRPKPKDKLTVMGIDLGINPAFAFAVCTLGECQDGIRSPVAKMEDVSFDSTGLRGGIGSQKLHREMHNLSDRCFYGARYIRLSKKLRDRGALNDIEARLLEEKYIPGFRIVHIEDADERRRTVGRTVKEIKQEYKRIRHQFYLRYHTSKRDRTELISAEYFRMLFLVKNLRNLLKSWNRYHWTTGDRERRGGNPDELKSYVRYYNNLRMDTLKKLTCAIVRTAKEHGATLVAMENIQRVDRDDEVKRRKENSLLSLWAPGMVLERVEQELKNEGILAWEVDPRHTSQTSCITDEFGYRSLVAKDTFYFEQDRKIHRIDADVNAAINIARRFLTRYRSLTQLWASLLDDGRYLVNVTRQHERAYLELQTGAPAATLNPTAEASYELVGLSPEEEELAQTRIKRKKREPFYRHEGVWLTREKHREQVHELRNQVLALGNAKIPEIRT
Text: (§1) With reference to (Yang, Yi, et al. “Highly efficient and rapid detection of the cleavage activity of Cas9/gRNA via a fluorescent reporter.” Applied biochemistry and biotechnology 180.4 (2016): 655-667.), a fluorescent reporter system for verification of Cas12j19 cleavage was constructed, where a fluorescent reporter vector carried an RFP and a non-luminous GFFP, and a Cas vector carried a CFP. A target FUT8-3: […] (SEQ ID NO: 28) on a GFFP sequence was selected for testing, where an underlined part was a PAM sequence. A DR sequence was […] (SEQ ID NO: 29). 48 h after a CHO cell was transfected, a proportion of GFP fluorescence in CFP and RFP fluorescence was determined by FCM to determine an editing efficiency.
(§2) In this example, in SEQ ID NO: 19, an amino acid 100 was mutated into K, an amino acid 400 was mutated into R, and an amino acid 763 was mutated into R to obtain a three site-mutated protein E100K-S400R-L763R; and in SEQ ID NO: 19, an amino acid 100 was mutated into K, an amino acid 400 was mutated into R, an amino acid 763 was mutated into R, and an amino acid 45 was mutated into T to obtain a four site-mutated protein E100K-S400R-L763R-S45T.

[2] = target: T2, Cas12j19 E100K-S400R-L763R (E100K,S400R,L763R)
T2 chain: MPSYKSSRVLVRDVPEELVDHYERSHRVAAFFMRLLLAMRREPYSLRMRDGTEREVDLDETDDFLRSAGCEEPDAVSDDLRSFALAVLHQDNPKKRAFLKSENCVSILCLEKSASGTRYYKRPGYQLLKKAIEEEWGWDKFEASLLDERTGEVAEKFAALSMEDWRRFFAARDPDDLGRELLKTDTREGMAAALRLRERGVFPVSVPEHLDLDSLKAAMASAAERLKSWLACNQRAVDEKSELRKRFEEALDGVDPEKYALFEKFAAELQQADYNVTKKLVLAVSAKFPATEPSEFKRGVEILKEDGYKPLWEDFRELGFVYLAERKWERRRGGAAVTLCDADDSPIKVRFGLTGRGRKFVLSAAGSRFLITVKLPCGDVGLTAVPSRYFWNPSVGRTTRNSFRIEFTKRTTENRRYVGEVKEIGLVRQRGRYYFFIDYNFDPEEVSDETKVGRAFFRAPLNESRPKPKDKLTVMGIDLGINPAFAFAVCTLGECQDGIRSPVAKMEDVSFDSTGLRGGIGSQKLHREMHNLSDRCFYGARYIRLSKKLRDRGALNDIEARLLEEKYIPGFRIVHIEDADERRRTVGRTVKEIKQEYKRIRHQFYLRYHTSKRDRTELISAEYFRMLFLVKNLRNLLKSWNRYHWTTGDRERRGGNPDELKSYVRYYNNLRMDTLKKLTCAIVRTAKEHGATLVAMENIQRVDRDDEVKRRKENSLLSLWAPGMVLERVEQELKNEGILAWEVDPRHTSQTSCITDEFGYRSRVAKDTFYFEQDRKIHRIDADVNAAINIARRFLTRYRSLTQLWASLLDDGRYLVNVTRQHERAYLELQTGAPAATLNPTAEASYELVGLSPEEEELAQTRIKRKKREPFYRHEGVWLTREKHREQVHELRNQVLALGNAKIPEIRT
Text: as §1, §2

[3] = target: T3, enCas-SF02 (Cas12j19 E100K-S400R-L763R-S45T) (E100K,S400R,L763R,S45T)
T3 chain: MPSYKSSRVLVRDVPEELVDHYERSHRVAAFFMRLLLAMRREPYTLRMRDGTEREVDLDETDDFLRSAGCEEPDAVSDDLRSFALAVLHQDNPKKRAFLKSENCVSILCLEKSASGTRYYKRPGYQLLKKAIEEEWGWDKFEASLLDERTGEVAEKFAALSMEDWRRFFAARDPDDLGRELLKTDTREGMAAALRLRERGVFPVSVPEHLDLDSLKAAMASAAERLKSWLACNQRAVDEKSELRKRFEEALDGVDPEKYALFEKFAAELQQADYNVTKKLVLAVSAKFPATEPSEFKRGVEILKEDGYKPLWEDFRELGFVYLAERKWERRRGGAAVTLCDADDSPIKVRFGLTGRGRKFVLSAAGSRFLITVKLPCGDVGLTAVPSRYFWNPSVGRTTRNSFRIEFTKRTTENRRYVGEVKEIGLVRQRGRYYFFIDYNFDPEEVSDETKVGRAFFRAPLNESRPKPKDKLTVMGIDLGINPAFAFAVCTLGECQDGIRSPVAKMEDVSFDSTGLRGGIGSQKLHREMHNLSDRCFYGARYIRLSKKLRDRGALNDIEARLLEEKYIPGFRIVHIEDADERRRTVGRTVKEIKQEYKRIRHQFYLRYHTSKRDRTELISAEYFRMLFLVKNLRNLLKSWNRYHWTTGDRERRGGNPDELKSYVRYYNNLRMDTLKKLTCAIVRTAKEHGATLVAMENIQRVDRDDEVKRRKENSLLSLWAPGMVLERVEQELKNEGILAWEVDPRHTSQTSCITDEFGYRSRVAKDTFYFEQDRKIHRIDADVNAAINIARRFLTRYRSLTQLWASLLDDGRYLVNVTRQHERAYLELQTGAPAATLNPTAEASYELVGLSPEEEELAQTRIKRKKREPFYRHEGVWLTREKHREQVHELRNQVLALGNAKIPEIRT
Text: as §1, §2

B1: Cas12j19 FUT8-3 guide (DR + spacer, order inferred) ; FUT8-3 target (ssRNA ; dsDNA)
RNA: GUGCUGCUGUCUCCCAGACGGGAGGCAGAACUGCACGAGGCUGUCUACAAUGGGGA
DNA 1: ATGGAGGCTGTCTACAATGGGGA
DNA 2: TCCCCATTGTAGACAGCCTCCAT
B1 showed an activity [1] of ~6%, an activity [2] of ~90% and an activity [3] of ~90%.

— patent publication US20250011739, “ENGINEERED CAS PROTEIN AND USE THEREOF” (SHANDONG SHUNFENG BIOTECHNOLOGY CO.LTD., published 2025)
